According to patent publication US20250282852A1:

What was measured:
[1] = biological target: biotinylated oligomeric Aβ1-42 (UniProt P05067); test: Octet biolayer interferometry, biotinylated oligomeric Aβ on streptavidin biosensor, hCD22-His in solution
[2] = biological target: biotinylated oligomeric Aβ1-42 (UniProt P05067); test: Octet 96e (printed as 'SPR system'), biotinylated oligomeric Aβ1-42 on streptavidin biosensor, CD22 extracellular domain at various concentrations in solution

koff [1]: 0.000522 s⁻¹
kon [1]: 186000 M⁻¹ s⁻¹
Kd [2]: 2.79 nM
Substance: extracellular domain of CD22 (Sino Biological) (receptor)
